According to patent publication US20240383982A1 (Genmab, published 2024):
Blank lines part the entries; values can stand above or below the binder they belong to.

Experiments:
[1] = biological target: T1, pig (Sus scrofa) B7H4, full length, on HEK-293F cells (pig, UniProt Q7Z7D3 26-282 (human entry)); assay: flow cytometry, HEK-293F cells transfected with pig B7H4 [panel Pig B7H4]
T1 construct: Uniprot F1SAY4; also called pig B7H4
T1 chain: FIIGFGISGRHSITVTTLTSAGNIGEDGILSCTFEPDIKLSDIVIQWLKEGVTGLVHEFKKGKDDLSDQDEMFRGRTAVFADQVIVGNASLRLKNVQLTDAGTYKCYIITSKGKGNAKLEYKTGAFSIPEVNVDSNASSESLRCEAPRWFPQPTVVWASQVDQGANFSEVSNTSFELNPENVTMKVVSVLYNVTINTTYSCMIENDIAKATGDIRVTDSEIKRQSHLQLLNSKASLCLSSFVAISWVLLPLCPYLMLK
Procedure: (§1) Cells (3×10⁴ cells/well) were incubated in polystyrene 96-well round-bottom plates (Greiner bio-one, cat. no. 650180) with serial dilutions of antibodies (ranging from 0.000458 to 30 μg/mL in 4-fold dilution steps) in 100 μL PBS/0.1% BSA/0.02% azide (staining buffer) at 4° C. for 30 min. Experiments were performed in technical duplicate. After washing twice in staining buffer, cells were incubated in 50 μL secondary antibody at 4° C. for 30 min. As a secondary antibody, R-Phycoerythrin (PE)-conjugated goat-anti-human IgG F(ab′)₂ (1:500 in FACS buffer; Jackson ImmunoResearch Laboratories, Inc., West Grove, PA, cat. no. 109-116-098), was used. Cells were washed twice in staining buffer, re-suspended in 30 μL FACS buffer containing Topro-3 (1:10,000 dilution) and analyzed on an iQue Screener (Intellicyt Corporation, USA). Binding curves were analyzed using non-linear regression (sigmoidal dose-response with variable slope) using GraphPad Prism V7.02 software (GraphPad Software, San Diego, CA, USA).

[2] = biological target: T2, human recombinant His tagged B7H4 protein (Sino Biological cat. no. 10738-H08H) (human, UniProt Q7Z7D3 29-258); assay: BLI (Octet HTX); antibody on anti-human IgG Fc capture sensor, human B7H4 ECD-His in solution; 2nd experiment
T2 construct: Bought protein; theoretical mass 26.8 kDa; also called human B7H4; human B7H4 extracellular domain
T2 sequence: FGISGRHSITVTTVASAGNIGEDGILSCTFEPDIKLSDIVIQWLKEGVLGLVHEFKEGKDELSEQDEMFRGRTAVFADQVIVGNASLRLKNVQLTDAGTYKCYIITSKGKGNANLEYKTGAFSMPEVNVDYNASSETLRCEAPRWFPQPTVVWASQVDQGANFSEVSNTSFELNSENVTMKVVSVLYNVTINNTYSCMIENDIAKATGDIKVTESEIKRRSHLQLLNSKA
Procedure: Target binding affinity of B7H4 antibodies was determined by label-free biolayer interferometry (BLI) on an Octet HTX instrument (FortéBio). Experiments were carried out while shaking at 1,000 RPM at 30° C. […] Anti-Human IgG Fc Capture (AHC) biosensors (FortéBio, cat. no. 18-5060) were pre-conditioned by exposure to 10 mM glycine (Sigma-Aldrich, cat. no. 15527) buffer pH 1.7 for 5 s, followed by neutralization in Sample Diluent (FortéBio, cat. no. 18-1048) for 5 s; both steps were repeated 2 times. Next, AHC sensors were loaded with antibody (1 μg/mL in Sample diluent) for 600 s. […] The theoretical molecular mass of human B7H4 and mouse B7H4 (as ECD-His tagged molecules) based on their amino acid sequences (26.8 kDa and 26.6 kDa respectively) were used for calculations. For each antibody a reference sensor was used, which was incubated with Sample Diluent instead of antigen. AHC sensors were regenerated by exposure to 10 mM glycine buffer pH 1.7 for 5 s, followed by neutralization in Sample Diluent for 5 s; both steps were repeated twice. Subsequently sensors were loaded again with antibody for the next cycle of kinetics measurements.
Data were acquired using Data Acquisition Software v9.0.0.49d (FortéBio) and analyzed with Data Analysis Software v9.0.0.12 (FortéBio). Data traces were corrected per antibody by subtraction of the reference sensor. The Y-axis was aligned to the last 10 s of the baseline, Interstep Correction alignment to dissociation and Savitzky-Golay filtering were applied. Data traces with a response<0.05 nm were excluded from analysis. The data was fitted with the 1:1 Global Full fit model using a window of interest for the association and dissociation times set at 300 s and 200 s respectively.

[3] = biological target: T1, pig (Sus scrofa) B7H4, full length, on …; assay: flow cytometry, HEK-293F cells transiently transfected with pig B7H4 [panel Pig B7H4]
Procedure: as §1

[4] = biological target: T3, human B7H4, full length, on cells (human, UniProt Q7Z7D3 25-282); assay: flow cytometry on HCC1954 tumor cells [panel HCC1954 cells]
T3 construct: Uniprot Q7Z7D3; Used for transfected HEK cells and for the B7H4-expressing human tumor cell lines (endogenous B7H4); also called VTCN1
T3 sequence: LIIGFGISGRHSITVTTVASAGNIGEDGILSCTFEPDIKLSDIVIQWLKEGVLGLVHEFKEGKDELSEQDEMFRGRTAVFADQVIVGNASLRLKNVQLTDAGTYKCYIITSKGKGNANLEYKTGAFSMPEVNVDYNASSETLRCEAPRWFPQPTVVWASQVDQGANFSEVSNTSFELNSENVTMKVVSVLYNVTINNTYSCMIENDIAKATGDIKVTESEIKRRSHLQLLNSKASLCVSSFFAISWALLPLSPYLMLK
Procedure: as §1
(§2) Binding was analyzed by flow cytometry as described above.

[5] = biological target: T3, human B7H4, full length, on cells; assay: cell-based or functional assay
[6] = biological target: T3, human B7H4, full length, on cells; assay: flow cytometry on MDA-MB-468 tumor cells [panel MDA-MB-468]
Procedure: as §1, §2

binding result [1]: binds | Kd [2]: 9.9 nM | koff [2]: 0.0025 s⁻¹ | kon [2]: 250000 M⁻¹ s⁻¹
B1: IgG1-B7H4-C5-FEAR (antibody, V domains shown)
VH: QLQLQESGPGLVKPSETLSLTCTVSGGSIKSGSYYWGWIRQPPGKGLEWIGNIYYSGSTYYNPSLRSRVTISVDTSKNQFSLKLSSVTAADTAVYYCAREGSYPNQFDPWGQGTLVTVSS
VL: EIVMTQSPATLSVSPGERATLSCRASQSVSSNLAWYQQKPGQAPRLLIYGASTRATGIPARFSGSGSGTEFTLTISSLQSEDFAVYYCQQYHSFPFTFGGGTKVEIKR
notes: Full length IgG1 FEAR, kappa; variable domains from US20190085080A1

B2: bsIgG1-huCD3-H101G-FEALxB7H4-C1-N52S-FEAR (bispecific antibody)
heavy 1: not shown
light 1: not shown
heavy 2: QVQLQQWGAGLLKPSETLSLTCAVYGGSFSGYYWSWIRQPPGKGLEWIGEISHSGSTNYNPSLKSRVTISIDTSKNQFSLKLTSVTAADTAVFYCARGLFNWNFDSWGQGTLVTVSSASTKGPSVFPLAPSSKSTSGGTAALGCLVKDYFPEPVTVSWNSGALTSGVHTFPAVLQSSGLYSLSSVVTVPSSSLGTQTYICNVNHKPSNTKVDKRVEPKSCDKTHTCPPCPAPEFEGGPSVFLFPPKPKDTLMISRTPEVTCVVVAVSHEDPEVKFNWYVDGVEVHNAKTKPREEQYNSTYRVVSVLTVLHQDWLNGKEYKCKVSNKALPAPIEKTISKAKGQPREPQVYTLPPSREEMTKNQVSLTCLVKGFYPSDIAVEWESNGQPENNYKTTPPVLDSDGSFFLYSRLTVDKSRWQQGNVFSCSVMHEALHNHYTQKSLSLSPGK
light 2: DIQMTQSPSSLSASVGDRVTITCRASQGIRNDLGWYQQKPGKAPKRLIYGASSLQSGVPSRFSGSGSGTEFTLTISSLQPEDFATYYCLQHNSYPRTFGQGTTVEIKRTVAAPSVFIFPPSDEQLKSGTASVVCLLNNFYPREAKVQWKVDNALQSGNSQESVTEQDSKDSTYSLSSTLTLSKADYEKHKVYACEVTHQGLSSPVTKSFNRGEC
notes: also called bslgG1-huCD3-H101G-FEALxB7H4-C1-N52S-FEAR; BslgG1-huCD3-H101G-FEALxB7H4-C1-N52S-FEAR
binding result [3]: no binding (tested: 30 µg/ml) | EC50 (read off the curve) [4]: ~3 µg/mL | IC50 of T cell-mediated cytotoxicity, HCC1954 cells, highest of 4 donors [5]: 0.22 µg/mL | IC50 of T cell-mediated cytotoxicity, HCC1954 cells, lowest of 4 donors [5]: 0.06 µg/mL | IC50 of T cell-mediated cytotoxicity, MCF7 cells, highest of 4 donors [5]: 1.29 µg/mL | IC50 of T cell-mediated cytotoxicity, MCF7 cells, lowest of 4 donors [5]: 0.55 µg/mL | IC50 of T cell-mediated cytotoxicity, MDA-MB-468 cells, highest of 4 donors [5]: 0.16 µg/mL | IC50 of T cell-mediated cytotoxicity, MDA-MB-468 cells, lowest of 4 donors [5]: 0.08 µg/mL | IC50 of T cell-mediated cytotoxicity, NCI-H16650 cells, highest of 4 donors [5]: 5.07 µg/mL | IC50 of T cell-mediated cytotoxicity, NCI-H16650 cells, lowest of 4 donors [5]: 1.67 µg/mL | IC50 of T cell-mediated cytotoxicity, OVCAR3 cells, highest of 4 donors [5]: 1.63 µg/mL | IC50 of T cell-mediated cytotoxicity, OVCAR3 cells, lowest of 4 donors [5]: 0.09 µg/mL | IC50 of T cell-mediated cytotoxicity, SK-BR3 cells, highest of 4 donors [5]: 0.22 µg/mL | IC50 of T cell-mediated cytotoxicity, SK-BR3 cells, lowest of 4 donors [5]: 0.09 µg/mL

EC50 (read off the curve) [6]: ~1 µg/mL
B3: IgG1-B7H4-C1-N52S-FEAR (antibody, V domains shown)
VH: QVQLQQWGAGLLKPSETLSLTCAVYGGSFSGYYWSWIRQPPGKGLEWIGEISHSGSTNYNPSLKSRVTISIDTSKNQFSLKLTSVTAADTAVFYCARGLFNWNFDSWGQGTLVTVSS
VL: DIQMTQSPSSLSASVGDRVTITCRASQGIRNDLGWYQQKPGKAPKRLIYGASSLQSGVPSRFSGSGSGTEFTLTISSLQPEDFATYYCLQHNSYPRTFGQGTTVEIKR
notes: Full length human IgG1 with L234F, L235E, D265A, K409R (FEAR) heavy chain constant region and kappa light chain; bivalent, monospecific; also called IgG1-B7H4-C1-052S-FEAR
